Laboratory results reported in the emibetuzumab library of Makowski et al. (2022).

B1: VH:VL chains; a variant is named by its letters at X, in order (parent)
chain 1: QVQLVQSGAEVKKPGASVKVSCKASGYTFTDYXMHWVRQAPGQGLEWMGXVNPNXXXTTYNQKFEGRVTMTTDTSTSTAYMELRSLRSDDTAVYYCARXNXLDXWGQGTTVTVSS
chain 2: DIQMTQSPSSLSASVGDRVTITCSVSSSVSSIYLHWYQQKPGKAPKLLIYSTSNLASGVPSRFSGSGSGTDFTLTISSLQPEDFATYYCQVYSGYPLTFGGGTKVEIK

Variants of: B1
Test: yeast display scFab, FACS + sequencing
Method in brief: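 Heavy-chain CDR mutant scFab yeast surface library, FACS-sorted after labelling with biotinylated ovalbumin (260 μg/mL in PBSB, 3 h, room temperature) or soluble membrane proteins (130 μg/mL, 20 min on ice), plus anti-Myc. Gates collected the top 25% and bottom 10% of binders, and samples from two replicates were deep sequenced. Non-specific binding call: a sequence was positive if found in ≥3 of 4 positive samples (membrane protein and ovalbumin pooled) and no negatives, and negative by the converse rule.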
For FTTRSALS, the non-specific binding call was “binds”.
In the case of ATTRGAVA, the non-specific binding call is reported as “no binding”.
In the case of DTTKSDGV, the non-specific binding call is reported as “no binding”.
With DTTRGAVA the non-specific binding call was “no binding”.
For YTTRGAGA, the non-specific binding call was “no binding”.
For STRKSYAA, the non-specific binding call was “binds”.
In the case of DTTKSSSS, the non-specific binding call is reported as “no binding”.
For VTTRDDSD, the non-specific binding call was “no binding”.
In the case of STTGSASF, the non-specific binding call is reported as “no binding”.
In the case of VTTKSDWV, the non-specific binding call is reported as “no binding”.
For FTTRDDSD, the non-specific binding call was “no binding”.
With DTTGGDGV the non-specific binding call was “no binding”.
In the case of VTTKSAAV, the non-specific binding call is reported as “no binding”.
In the case of VTTKSAAA, the non-specific binding call is reported as “no binding”.
For ATTGGDWD, the non-specific binding call was “no binding”.
For FTRTNFLS, the non-specific binding call was “binds”.
For YTTRGDGV, the non-specific binding call was “no binding”.
For ATRTDDVF, the non-specific binding call was “no binding”.
For YTRGASSS, the non-specific binding call was “no binding”.
For YTRGNAWA, the non-specific binding call was “binds”.
With VTTKSSVA the non-specific binding call was “no binding”.
For FTTGGSAV chain 1 M48I, the non-specific binding call was “no binding”.
For YTRKSSVD, the non-specific binding call was “binds”.
For YTTGSASF, the non-specific binding call was “no binding”.
For YTTGGDGA, the non-specific binding call was “no binding”.
In the case of DTTGSAVA, the non-specific binding call is reported as “no binding”.
For DTTGSAVV, the non-specific binding call was “no binding”.
In the case of DTTRADVD, the non-specific binding call is reported as “no binding”.
For YTTKSDGV, the non-specific binding call was “no binding”.
With FTRRSSLF chain 1 V111I the non-specific binding call was “binds”.
With ATTKSDGV the non-specific binding call was “no binding”.
For ATTKSDGA, the non-specific binding call was “no binding”.
In the case of VTTGGDGV, the non-specific binding call is reported as “no binding”.
In the case of DTRTAYGF, the non-specific binding call is reported as “binds”.
In the case of VTTRADVV, the non-specific binding call is reported as “no binding”.
In the case of VTTRADVF, the non-specific binding call is reported as “no binding”.
With VTTRADVA the non-specific binding call was “no binding”.
With VTTRADVY the non-specific binding call was “no binding”.
For YTTGGDVA, the non-specific binding call was “no binding”.
In the case of YTRGASLD, the non-specific binding call is reported as “no binding”.
For YTTGGDWA, the non-specific binding call was “no binding”.
In the case of DTTRDDSD, the non-specific binding call is reported as “no binding”.
For VTRGDSGA, the non-specific binding call was “no binding”.
With VTRGDVWV the non-specific binding call was “no binding”.
For VTTKSDLA, the non-specific binding call was “no binding”.
For DTTKGDGS, the non-specific binding call was “no binding”.
In the case of DTTGSDWV, the non-specific binding call is reported as “no binding”.
In the case of DTTGSDWA, the non-specific binding call is reported as “no binding”.
In the case of DTTGSDWY, the non-specific binding call is reported as “no binding”.
With VTTADDWV the non-specific binding call was “no binding”.
For VTTKSAVA, the non-specific binding call was “no binding”.
With VTTRAASV the non-specific binding call was “no binding”.
In the case of YTTRGSWV, the non-specific binding call is reported as “no binding”.
In the case of ATTGGDGV, the non-specific binding call is reported as “no binding”.
With YTRGGSGA the non-specific binding call was “binds”.
With VTTGSASF the non-specific binding call was “no binding”.
In the case of STTGGDGV, the non-specific binding call is reported as “no binding”.
In the case of VTTKSDVA, the non-specific binding call is reported as “no binding”.
With VTTKSDVF the non-specific binding call was “no binding”.
For ATTKSAGD, the non-specific binding call was “no binding”.
In the case of VTTKSAGV, the non-specific binding call is reported as “no binding”.
In the case of VTTKSAGD, the non-specific binding call is reported as “no binding”.
In the case of VTTRGAVA, the non-specific binding call is reported as “no binding”.
With DTTGSSGV the non-specific binding call was “no binding”.
With VTTKSDSA the non-specific binding call was “no binding”.
In the case of VTTKSDSV, the non-specific binding call is reported as “no binding”.
For VTTKGDVF, the non-specific binding call was “no binding”.
For VTRGASGA, the non-specific binding call was “no binding”.
With ATTGSASF the non-specific binding call was “no binding”.
For VTTKSSSA, the non-specific binding call was “no binding”.
In the case of FTTRGAVA, the non-specific binding call is reported as “no binding”.
In the case of VTTGGAVD, the non-specific binding call is reported as “no binding”.
In the case of ATTKSAVA, the non-specific binding call is reported as “no binding”.
For DTTGSASD, the non-specific binding call was “no binding”.
With DTTGSASF the non-specific binding call was “no binding”.
In the case of ATTKSDAA, the non-specific binding call is reported as “no binding”.
With VTTKSSAV the non-specific binding call was “no binding”.
With DTTGSDVF the non-specific binding call was “no binding”.
In the case of DTTGSDVY, the non-specific binding call is reported as “no binding”.
For YTTGGAVA, the non-specific binding call was “no binding”.
For STTRGAVA, the non-specific binding call was “no binding”.
In the case of VTTKSFGV, the non-specific binding call is reported as “no binding”.
In the case of YTRGASWV, the non-specific binding call is reported as “no binding”.
For STTKSDGV, the non-specific binding call was “no binding”.
In the case of YTRGSAWV, the non-specific binding call is reported as “binds”.
With YTTGGAAV the non-specific binding call was “no binding”.
For VTTKSDGA, the non-specific binding call was “no binding”.
For VTTKSDGY, the non-specific binding call was “no binding”.
For VTTKSYLV, the non-specific binding call was “no binding”.
For YTTGGSSA, the non-specific binding call was “no binding”.
In the case of DTTEASLV, the non-specific binding call is reported as “no binding”.
With ATTKSDVA the non-specific binding call was “no binding”.
For DTTGSALD, the non-specific binding call was “no binding”.
For VTTRAAVS, the non-specific binding call was “no binding”.
In the case of VTTEASLD, the non-specific binding call is reported as “no binding”.
For DTTKGDVV, the non-specific binding call was “no binding”.
In the case of DTTKGDVA, the non-specific binding call is reported as “no binding”.
In the case of YTTRDDSD, the non-specific binding call is reported as “no binding”.
For VTTRASGD, the non-specific binding call was “no binding”.
With DTTGSDAV the non-specific binding call was “no binding”.
In the case of YTTGGYLV, the non-specific binding call is reported as “binds”.
For VTTKSDAV, the non-specific binding call was “no binding”.
